# Data: patent publication US20240101668A1 (WUGEN, published 2024)
# Changes are numbered by the printed parent chain.
# B1: Polypeptide No. 124 (scFv, V domains shown)
# VH: EVQLVESGGGLVKPGGSLRLSCAASGFTFSSYWMHWVRQAPGKGLEWVAVIWYDGSNKYYADSVKGRFTISRDDSKNTLYLQMNSLKTEDTAVYYCVRDGARSGMDVWGQGTTVTVSS
# VL: EIVMTQSPATLSVSPGERATLSCRASQSVSTYVAWYQQKPGQAPRLLIYGASTRATGIPARFSGSGSGTEFTLTISSLQSEDFAVYYCQQYYDTPLTFGGGTKVEIKR
# notes: scFv
# B2: Polypeptide No. 126 (scFv, V domains shown)
# VH: EVQLLESGGGLVQPGGSLRLSCAASGFTFTTYDMHWVRQAPGKGLEWVAGINWNSVIIDYADSVKGRFTISRDNSKNTLYLQMNSLRAEDTAVYYCAKDLLYYYDSIGAFDIWGQGTMVTVSS
# VL: DIQMTQSPSSLSASVGDRVTITCRASQSISTWLAWYQQKPGKAPKLLIYAASSLQSGVPSRFSGSGSGTDFTLTISSLQPEDFATYYCQQSDTLPLTFGGGTKVEIKR
# notes: scFv
# B3: Polypeptide No. 123 (scFv, V domains shown)
# VH: EVQLLESGGGLVQPGGSLRLSCAASGFILGNAWMHWVRQAPGKGLEWVASVSGDGSDENYADSVKGRFTISRDNSKNTLYLQMNSLRAEDTAVYYCARDTHDYGDYAPFDYWGQGTLVTVSS
# VL: DIQMTQSPSSLSASVGDRVTITCQASQDINNYLNWYQQKPGKAPKLLIYAASNLQSGVPSRFSGSGSGTDFTLTISSLQPEDFATYYCQQTYSFPLTFGGGTKVEIKR
# notes: scFv
# B4: Polypeptide No. 127 (scFv, V domains shown)
# VH: QVQLVQSGAEVKKPGASVKVSCKASGYTFTNHHMHWVRQAPGQGLEWMGMINPSGGSTSYAQKFQGRVTMTRDTSTSTVYMELSSLRSEDTAVYYCARGRPVDIVATYYFDYWGQGTLVTVSS
# VL: B3 VL with N30R, Y32F, A50G, N53T, Q55H, T91S, F94T
# notes: scFv
# B5: Polypeptide No. 125 (scFv, V domains shown)
# VH: QVQLVQSGAEVKKPGASVKVSCKASGYSFTTYDIHWVRQAPGQGLEWMGWMNPNSGNTGYAQKFQGRVTMTRDTSTSTVYMELSSLRSEDTAVYYCATDHWVLGGFDYWGQGTLVTVSS
# VL: B3 VL with N30S, N53T, T91Y, Y92S, S93Y, F94L, L96V, G100Q, V104L
# notes: scFv
# B6: Polypeptide No. 122 (scFv, V domains shown)
# VH: QVQLVQSGAEVKKPGASVKVSCKASGYTFTDYWLHWVRQAPGQGLEWMGTINPSGGSTSYSHKFQGRVTMTRDTSTSTVYMELSSLRSEDTAVYYCAKEEEGFWSGYAFDYWGQGTLVTVSS
# VL: not shown
# notes: scFv
# B7: Polypeptide No. 121 (scFv, V domains shown)
# VH: QVQLVQSGAEVKKPGASVKVSCKASGDSFTDYYIHWVRQAPGQGLEWMGWMNPNSGNTGYAQQFQGRVTMTRDTSTSTVYMELSSLRSEDTAVYYCARDREYSSSSRYFDLWGRGTLVTVSS
# VL: DIQMTQSPSSLSASVGDRVTITCRASQNIGNWLAWYQQKPGKAPKLLIYAASTLQSGVPSRFSGSGSGTDFTLTISSLQPEDFATYYCQQSYNSITFGPGTKVDIKR
# notes: scFv
# Biological target: T1, huCD33-R69 stably expressed on Jurkat cells (human, UniProt P20138 18-364)
# T1 construct: whole, on cells; >200,000 receptors per cell; also called CD33 WT; CD33^ARG69
# Assay: FACS on cells;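 further: fixed Jurkat lines probed with myc-tagged scFv periplasmic extracts, anti-myc PE flow cytometry, PE MFI fold binned − <2, + 2–10, ++ 10–30, +++ >30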
# Procedure: (§1) Jurkat cells were engineered to stably express either the huCD33-R69 or huCD33-G69 variant at >200,000 receptors per cell. Parental, huCD33-R69, and huCD33-G69 Jurkat cell lines were stained with differing levels of CellTrace Violet Cell Proliferation Kit (ThermoFisher, cat. #C34557) to barcode each cell line. Barcoded Jurkat cell lines were fixed with paraformaldehyde and incubated with myc-labeled scFv periplasmic extracts and a secondary anti-myc PE-conjugated monoclonal antibody. Appropriate positive and negative controls were used. Stained cells were analyzed by flow cytometry (CytoFLEX, Beckman Coulter, Inc.) and binding was assessed by change in PE mean fluorescence intensity (MFI) of the barcoded cell populations.
# (§2) Data is disclosed below in Table 16c, reporting FACS fold change over parental as (−), indicating <2 fold; (+), indicating 2-10 fold; (++), indicating 10-30 fold; and (+++), indicating >30 fold.
# T1 sequence (P20138 18-364): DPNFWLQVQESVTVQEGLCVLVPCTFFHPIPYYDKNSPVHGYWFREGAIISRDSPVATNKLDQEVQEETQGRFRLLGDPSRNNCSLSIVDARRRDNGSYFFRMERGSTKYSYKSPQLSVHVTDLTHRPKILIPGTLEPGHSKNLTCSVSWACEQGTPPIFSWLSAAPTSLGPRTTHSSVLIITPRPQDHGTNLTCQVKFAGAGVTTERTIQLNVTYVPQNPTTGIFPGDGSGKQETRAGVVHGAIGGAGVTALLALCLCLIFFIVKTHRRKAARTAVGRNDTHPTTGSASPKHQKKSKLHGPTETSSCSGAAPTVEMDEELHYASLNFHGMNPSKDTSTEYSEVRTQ
row,FACS geometric mean fold change over Jurkat parental,Binder
1,> 30 fold,B1
2,> 30 fold,B2
3,> 30 fold,B3
4,10 to 30 fold,B4
5,> 30 fold,B5
6,10 to 30 fold,B6
7,10 to 30 fold,B7

# Biological target: T2, huCD33-G69 stably expressed on Jurkat cells (human, UniProt P20138 18-364)
# T2 construct: whole, on cells; >200,000 receptors per cell; also called CD33 Mutant; CD33 R69G
# Assay: FACS on cells;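 further: fixed Jurkat lines probed with myc-tagged scFv periplasmic extracts, anti-myc PE flow cytometry, PE MFI fold binned − <2, + 2–10, ++ 10–30, +++ >30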
# Procedure: as §1, §2
# T2 sequence (P20138 18-364 R69G): as the sequence (P20138 18-364) above, with R52G counted along it
row,FACS geometric mean fold change over Jurkat parental,Binder
1,> 30 fold,B1
2,10 to 30 fold,B2
3,> 30 fold,B3
4,10 to 30 fold,B4
5,> 30 fold,B5
6,> 30 fold,B6
7,10 to 30 fold,B7

# Biological target: T3, huCD33-G69-Fc recombinant protein (human, UniProt P20138 18-259);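 further: biolayer interferometry: scFvs captured from periplasmic extracts on anti-V5-loaded streptavidin biosensors, antigen association for 2 min, buffer dissociation for 5 min, 1:1 Langmuir fit giving off-rate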
# T3 construct: extracellular domain; also called CD33 R69G
# Assay: BLI
# T3 sequence (P20138 18-259 R69G): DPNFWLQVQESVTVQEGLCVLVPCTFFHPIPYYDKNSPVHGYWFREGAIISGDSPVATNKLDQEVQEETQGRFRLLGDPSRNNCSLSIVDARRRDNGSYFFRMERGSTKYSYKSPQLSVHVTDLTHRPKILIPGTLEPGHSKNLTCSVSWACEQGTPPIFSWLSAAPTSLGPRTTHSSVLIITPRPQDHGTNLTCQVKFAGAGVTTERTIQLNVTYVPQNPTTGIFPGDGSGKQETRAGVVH
row,binding result,Binder
1,binds,B1
2,binds,B2
3,binds,B3
4,binds,B4
5,binds,B5
6,binds,B6
7,binds,B7
